Publication PMC4027167, “The histone chaperones Vps75 and Nap1 form ring-like, tetrameric structures in solution” (Nucleic Acids Research, 2014)
Substitutions are numbered along the chain they refer to. Names and notes keep the numbering of the source. Each block holds one molecule with its values, some of them ahead of it.

Key:
[1] = target: Vps75 Y35C dimers labelled with Maleimide-PEG2-Biotin (budding yeast) (UniProt P53853); test: BLI; biotinylated chaperone dimers on streptavidin biosensors, unlabelled wild-type chaperone in solution; 150 mM NaCl, 20 mM HEPES.KOH pH 7.5, 0.1% BSA; steady state, one site saturation fit; two dimers to tetramer
[2] = target: Vps75, full-length (budding yeast) (UniProt P53853); test: SAXS; 150 mM NaCl, 0.5 to 10 mg/ml, 10°C
[3] = target: Vps75, full-length (budding yeast) (UniProt P53853); test: SAXS; 500 mM NaCl, 0.5 to 10 mg/ml, 10°C
[4] = target: Vps75, full-length (budding yeast) (UniProt P53853); test: SEC-MALS; 500 mM NaCl, 20 mM HEPES-KOH pH 7.5; MAbPac SEC-1 column (Figure 1) or Superdex S200 10/300 (Figure 7)
[5] = target: Vps75, full-length (budding yeast) (UniProt P53853); test: SEC-MALS; 150 mM NaCl, 20 mM HEPES-KOH pH 7.5; MAbPac SEC-1 column (Figure 1) or Superdex S200 10/300 (Figures 5 and 7)
[6] = target: Vps75 lacking the unstructured C-terminal domain (residues 1–223) (budding yeast) (UniProt P53853); test: SAXS; 500 mM NaCl, 0.5 to 10 mg/ml, 10°C
[7] = target: Vps75 lacking the unstructured C-terminal domain (residues 1–223) (budding yeast) (UniProt P53853); test: SEC-MALS; 500 mM NaCl, 20 mM HEPES-KOH pH 7.5; MAbPac SEC-1 column (Figure 1) or Superdex S200 10/300 (Figure 7)
[8] = target: Vps75 lacking the unstructured C-terminal domain (residues 1–223) (budding yeast) (UniProt P53853); test: SEC-MALS; 150 mM NaCl, 20 mM HEPES-KOH pH 7.5; MAbPac SEC-1 column (Figure 1) or Superdex S200 10/300 (Figures 5 and 7)
[9] = target: Nap1 L120C dimers labelled with Maleimide-PEG2-Biotin (budding yeast) (UniProt P25293); test: BLI; biotinylated chaperone dimers on streptavidin biosensors, unlabelled wild-type chaperone in solution; 150 mM NaCl, 20 mM HEPES.KOH pH 7.5, 0.1% BSA; steady state, one site saturation fit; two dimers to tetramer
[10] = target: Nucleosome Assembly Protein 1 (Nap1) (budding yeast) (UniProt P25293); test: SEC-MALS; 500 mM NaCl, 20 mM HEPES-KOH pH 7.5; MAbPac SEC-1 column (Figure 1) or Superdex S200 10/300 (Figure 7)
[11] = target: Nucleosome Assembly Protein 1 (Nap1) (budding yeast) (UniProt P25293); test: SEC-MALS; 150 mM NaCl, 20 mM HEPES-KOH pH 7.5; MAbPac SEC-1 column (Figure 1) or Superdex S200 10/300 (Figures 5 and 7)
[12] = target: the molecule itself; test: PELDOR; spin-labelled protein, 100–150 μM dimer, 150 mM NaCl, 20 mM HEPES-KOH pH 7.5 in deuterium oxide, mixed 1:1 with D8-glycerol; tetrameric conditions
[13] = target: T1, Rtt109 (UniProt Q07794 1-436); test: PELDOR; 100 μM Vps75 Y35RX2 dimer with Rtt109 at ratios 2:0, 2:0.25, 2:0.5 and 2:1 (Vps75:Rtt109); details: both partners purified
T1 construct: expressed from a pET28a-derived vector, a gift from Paul Kaufman; also called histone acetyltransferase Rtt109
T1 sequence: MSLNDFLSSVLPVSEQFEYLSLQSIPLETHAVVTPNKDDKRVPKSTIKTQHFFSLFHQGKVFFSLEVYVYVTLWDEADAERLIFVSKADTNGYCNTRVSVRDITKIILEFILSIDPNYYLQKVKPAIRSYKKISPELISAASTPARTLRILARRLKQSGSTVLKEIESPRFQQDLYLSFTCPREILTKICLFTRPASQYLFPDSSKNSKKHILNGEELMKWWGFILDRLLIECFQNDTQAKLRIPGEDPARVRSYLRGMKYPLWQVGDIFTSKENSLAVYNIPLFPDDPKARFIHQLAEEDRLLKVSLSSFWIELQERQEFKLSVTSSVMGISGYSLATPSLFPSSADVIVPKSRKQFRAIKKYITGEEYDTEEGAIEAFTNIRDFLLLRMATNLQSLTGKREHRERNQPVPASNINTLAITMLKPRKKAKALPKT

[14] = target: the molecule itself; test: as above
[15] = target: the molecule itself; test: SEC-MALS; 150 mM NaCl, 20 mM HEPES-KOH pH 7.5; MAbPac SEC-1 column (Figure 1) or Superdex S200 10/300 (Figures 5 and 7)
[16] = target: the molecule itself; test: SEC-MALS; run at 500 mM NaCl after disulphide cross-linking via K78C at 150 mM NaCl
[17] = target: the molecule itself; test: PELDOR; spin-labelled protein, 100–150 μM dimer, 500 mM NaCl, 20 mM HEPES-KOH pH 7.5 in deuterium oxide, mixed 1:1 with D8-glycerol; dimeric conditions

Kd [1]: 600 nM
stoichiometry N [2]: 4
stoichiometry N [3]: 2
stoichiometry N [4]: 2
stoichiometry N [5]: 4
Molecule: Vps75, full-length (from UniProt P53853 1-264) (natural protein)

stoichiometry N [6]: 2
stoichiometry N [7]: 2
stoichiometry N [8]: 4
Molecule: Vps75 lacking the unstructured C-terminal domain (residues 1–223) (from UniProt P53853 1-223) (domain or fragment)

Kd [9]: 3570 nM
stoichiometry N [10]: 2
stoichiometry N [11]: 4
Molecule: Nucleosome Assembly Protein 1 (Nap1) (from UniProt P25293 1-417) (natural protein)

B1: Vps75 K117R1 (natural protein, budding yeast, UniProt P53853 1-264, looked up)
chain: MMSDQENENEHAKAFLGLAKAEEEVDAIEREVELYRLNKMKPVYEKRDAYIDEIAEFWKIVLSQHVSFANYIRASDFKYIDTIDKIKVEWLALESEMYDTRDFSITFHFHGIEGDFCEQQVTKVFQIKKGKDDQEDGILTSEPVPIEWPQSYDSINPDLIKDKRSPEGKKKYRQGMKTIFGWFRWTGLKPGKEFPHGDSLASLFSEEIYPFAVKYYAEAQRDLEDEEGESGLSADGDSEDDDGSLGEVDLPLSDEEPSSKKRKV
modifications: MTSL spin label (R1) on cysteine 117; deuterated protein
notes: Vps75 of budding yeast, open reading frame, unique cysteine at position 117; also called Vps75 K117C; not shown: His6, N-terminal, cleaved
stoichiometry N [12]: 4

binding result [13]: binds
B2: Vps75 Y35RX2 (natural protein, budding yeast, UniProt P53853 1-264, looked up)
chain: B1 chain with Y35C, C117K
modifications: 3,4-Bis-MTSL crosslinking spin label (RX2) joining cysteine 35 of the two chains of the dimer; deuterated protein
notes: Vps75 of budding yeast, open reading frame, unique cysteine at position 35; One spin label for each dimer; also called singly labelled Vps75 Y35RX2 dimer; not shown: His6, N-terminal, cleaved
binding result [14]: binds

B3: Vps75 K170E (natural protein, budding yeast, UniProt P53853 1-264, looked up)
chain: B1 chain with C117K, K170E
notes: Vps75 of budding yeast, point mutant in the C21A/C212A construct
stoichiometry N [15]: ~2

B4: Vps75 R164D (natural protein, budding yeast, UniProt P53853 1-264, looked up)
chain: B1 chain with C117K, R164D
notes: as for B3
stoichiometry N [15]: ~2

B5: Vps75 E56R1 (natural protein, budding yeast, UniProt P53853 1-264, looked up)
chain: B1 chain with E56C, C117K
modifications: MTSL spin label (R1) on cysteine 56; deuterated protein
notes: Vps75 of budding yeast, open reading frame, unique cysteine at position 56; also called Vps75 E56C; not shown: His6, N-terminal, cleaved
stoichiometry N [12]: 4

B6: Vps75 triple mutant protein (R164D, K169E, K170E) (natural protein, budding yeast, UniProt P53853 1-264, looked up)
chain: B1 chain with C117K, R164D, K169E, K170E
notes: Vps75 of budding yeast, mutant in the C21A/C212A construct
stoichiometry N [15]: 2

B7: Vps75 K169E (natural protein, budding yeast, UniProt P53853 1-264, looked up)
chain: B1 chain with C117K, K169E
notes: as for B3
stoichiometry N [15]: ~2

B8: Vps75 K78C (natural protein, budding yeast, UniProt P53853 1-264, looked up)
chain: B1 chain with K78C, C117K
modifications: disulphide between cysteine 78 of opposing dimers after oxidation with Cu (II) phenanthroline
notes: as for B3
stoichiometry N [16]: 4

B9: Nap1 PPP mutant (R301P, T302P, K305P) (natural protein)
chain: MSDPIRTKPKSSMQIDNAPTPHNTPASVLNPSYLKNGNPVRAQAQEQDDKIGTINEEDILANQPLLLQSIQDRLGSLVGQDSGYVGGLPKNVKEKLLSLKTLQSELFEVEKEFQVEMFELENKFLQKYKPIWEQRSRIISGQEQPKPEQIAKGQEIVESLNETELLVDEEEKAQNDSEEEQVKGIPSFWLTALENLPIVADTITDRDAEVLEYLQDIGLEYLTDGRPGFKLLFRFDSSANPFFTNDILAKTYFYQKELGYSGDFIYDHAEGAEISWKDNAHNVTVDLEMRKQRNKTTKQVPPIEPITPIESFFNFFDPPKIQNEDQDEELEEDLEERLALDYSIGEQLKDKLIPRAVDWFTGAALEFEFEEDEEEADEDEDEEEDDDHGLEDDDGESAEEQDDFAGRPEQAPEAKQS
stoichiometry N [15]: ~2

B10: Nap1 T251R1 (natural protein, budding yeast, UniProt P25293 1-417, looked up)
chain: B9 chain with T251C, P301R, P302T, P305K
modifications: MTSL spin label (R1) on cysteine 251; deuterated protein
notes: Nap1 of budding yeast, open reading frame, unique cysteine at position 251; also called Nap1 T251C; not shown: His6, N-terminal, cleaved
stoichiometry N [17]: 2
stoichiometry N [12]: 4

B11: Nap1 E209R1 (natural protein, budding yeast, UniProt P25293 1-417, looked up)
chain: B9 chain with E209C, P301R, P302T, P305K
modifications: MTSL spin label (R1) on cysteine 209; deuterated protein
notes: Nap1 of budding yeast, open reading frame, unique cysteine at position 209; also called Nap1 E209C; not shown: His6, N-terminal, cleaved
stoichiometry N [17]: 2
stoichiometry N [12]: 4

B12: Nap1 T307R1 (natural protein, budding yeast, UniProt P25293 1-417, looked up)
chain: B9 chain with P301R, P302T, P305K, T307C
modifications: MTSL spin label (R1) on cysteine 307; deuterated protein
notes: Nap1 of budding yeast, open reading frame, unique cysteine at position 307; also called Nap1 T307C; not shown: His6, N-terminal, cleaved
stoichiometry N [17]: 2
stoichiometry N [12]: 4
